Four molecules from article PMC5291270 can be followed below.

The target of data set [1] is T1, Flag-SA1 WT (UniProt Q8WVM7).
T1 sequence: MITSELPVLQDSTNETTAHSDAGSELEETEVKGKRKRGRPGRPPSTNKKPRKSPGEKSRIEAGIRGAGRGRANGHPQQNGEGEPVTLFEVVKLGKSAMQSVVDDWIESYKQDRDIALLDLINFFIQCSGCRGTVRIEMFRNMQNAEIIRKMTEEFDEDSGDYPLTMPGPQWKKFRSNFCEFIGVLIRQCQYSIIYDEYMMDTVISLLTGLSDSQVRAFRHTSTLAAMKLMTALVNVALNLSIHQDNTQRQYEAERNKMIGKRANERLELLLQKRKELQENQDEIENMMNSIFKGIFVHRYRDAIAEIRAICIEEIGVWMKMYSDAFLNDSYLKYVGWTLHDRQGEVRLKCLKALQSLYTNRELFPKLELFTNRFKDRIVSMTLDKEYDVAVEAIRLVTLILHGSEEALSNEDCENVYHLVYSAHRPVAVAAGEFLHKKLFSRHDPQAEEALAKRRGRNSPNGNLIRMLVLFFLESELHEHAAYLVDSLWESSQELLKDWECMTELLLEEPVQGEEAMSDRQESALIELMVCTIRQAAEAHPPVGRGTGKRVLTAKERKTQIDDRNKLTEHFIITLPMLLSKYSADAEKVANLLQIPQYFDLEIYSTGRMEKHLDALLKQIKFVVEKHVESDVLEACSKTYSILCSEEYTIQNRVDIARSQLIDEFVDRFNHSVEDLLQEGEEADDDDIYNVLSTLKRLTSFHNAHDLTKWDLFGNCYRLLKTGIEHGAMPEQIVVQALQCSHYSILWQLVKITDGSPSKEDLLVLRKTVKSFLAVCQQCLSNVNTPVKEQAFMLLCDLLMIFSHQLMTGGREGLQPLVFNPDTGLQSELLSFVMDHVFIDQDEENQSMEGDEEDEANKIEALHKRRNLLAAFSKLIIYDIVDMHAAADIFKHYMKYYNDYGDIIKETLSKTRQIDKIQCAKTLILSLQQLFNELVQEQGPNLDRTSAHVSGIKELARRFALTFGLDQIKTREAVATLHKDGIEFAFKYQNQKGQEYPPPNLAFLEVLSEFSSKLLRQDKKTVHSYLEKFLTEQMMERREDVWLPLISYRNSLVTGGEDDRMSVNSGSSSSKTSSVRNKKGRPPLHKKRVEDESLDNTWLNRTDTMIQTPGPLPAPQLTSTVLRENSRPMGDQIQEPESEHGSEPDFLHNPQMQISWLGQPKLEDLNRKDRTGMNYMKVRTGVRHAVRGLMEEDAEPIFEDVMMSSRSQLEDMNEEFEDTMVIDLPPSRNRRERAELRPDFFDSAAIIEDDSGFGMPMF
In words: AFM. As to conditions: scale: % of SA1 bound at same locations as telomeric region.

Data set [2] addresses T2, Flag-SA1 WT (UniProt Q8WVM7 1-1258).
T2 sequence: T1 sequence
The experiment in a line: fluorescence anisotropy. (Fluorescence polarisation rises when a labelled molecule tumbles more slowly, as on binding a larger partner.)

In data set [3] the target is TRF1;SA1 (EMSA with TRF1) (human?;human?, UniProt P54274;Q8WVM7 1-439;1-1258, |). In words: EMSA. In general terms: A gel shift assay detects complexes by their altered migration in electrophoresis.
TRF1;SA1 (EMSA with TRF1), sequence (P54274 whole entry, one chain of several): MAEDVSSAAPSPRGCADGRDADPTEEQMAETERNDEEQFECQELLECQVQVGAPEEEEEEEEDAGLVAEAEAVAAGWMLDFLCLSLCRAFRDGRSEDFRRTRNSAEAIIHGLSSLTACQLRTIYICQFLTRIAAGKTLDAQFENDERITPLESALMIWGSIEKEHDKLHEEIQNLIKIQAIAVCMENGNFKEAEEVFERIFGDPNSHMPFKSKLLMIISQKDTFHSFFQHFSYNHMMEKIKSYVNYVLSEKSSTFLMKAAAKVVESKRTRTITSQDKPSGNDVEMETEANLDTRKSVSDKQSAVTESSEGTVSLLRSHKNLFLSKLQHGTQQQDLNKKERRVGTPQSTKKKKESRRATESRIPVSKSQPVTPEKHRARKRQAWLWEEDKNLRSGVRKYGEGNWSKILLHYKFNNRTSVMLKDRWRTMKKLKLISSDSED

For orientation: Kd means the equilibrium constant for the complex coming apart.

On to genomic control DNA, for which the binding signal in data set [1] was found to be 27.

B1: Tel7 (7 TTAGGG repeats) (dsDNA)
DNA 1: CTGGATCCGTACTTAGGGTTAGGGTTAGGGTTAGGGTTAGGGTTAGGGTTAGGGACAAGAATTCGA
DNA 2: TCGAATTCTTGTCCCTAACCCTAACCCTAACCCTAACCCTAACCCTAACCCTAAGTACGGATCCAG
B1 had a Kd in data set [2] of 34 ± 5.8 nM.

B2: Scram (scrambled Tel7) (dsDNA)
DNA 1: CTGGATCCGTACAGTGTAAGGGTGAGTGGTTGGGTGTGTGGGTGTTGATGTAGAACAAGAATTCGA
DNA 2: TCGAATTCTTGTTCTACATCAACACCCACACACCCAACCACTCACCCTTACACTGTACGGATCCAG
In the case of B2, the equilibrium dissociation constant (Kd) in data set [2] was determined as 104 ± 13.6 nM.

B3: 3x TTAGGG EMSA duplex (dsDNA)
DNA 1: TTAGGGTTAGGGTTAGGGATGTCCAGCAAGCCAGAATTCGGCAGCGTA
DNA 2: TACGCTGCCGAATTCTGGCTTGCTGGACATCCCTAACCCTAACCCTAA
As for B3, in data set [3], the binding result is on record as “binds”.
